Results taken from patent US20210122826A1 (MIT, published 2021).
Positions count from the first letter of the chain named.

Assays:
Test in all cases: flow, Jurkat
Human KLRF2 = molecular target: T1, Human KLRF2 (human, UniProt D3W0D1 1-207)
T1 construct: also called hKLRF2
T1 sequence: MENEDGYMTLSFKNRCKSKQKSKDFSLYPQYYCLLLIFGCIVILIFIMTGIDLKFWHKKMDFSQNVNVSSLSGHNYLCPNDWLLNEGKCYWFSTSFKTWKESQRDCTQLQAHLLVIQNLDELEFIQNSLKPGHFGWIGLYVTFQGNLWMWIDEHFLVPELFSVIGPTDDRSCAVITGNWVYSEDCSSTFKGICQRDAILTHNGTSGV

Human Clec10A = molecular target: T2, Human Clec10A (human, UniProt Q8IUN9 1-316)
T2 construct: also called hClec10A
T2 sequence: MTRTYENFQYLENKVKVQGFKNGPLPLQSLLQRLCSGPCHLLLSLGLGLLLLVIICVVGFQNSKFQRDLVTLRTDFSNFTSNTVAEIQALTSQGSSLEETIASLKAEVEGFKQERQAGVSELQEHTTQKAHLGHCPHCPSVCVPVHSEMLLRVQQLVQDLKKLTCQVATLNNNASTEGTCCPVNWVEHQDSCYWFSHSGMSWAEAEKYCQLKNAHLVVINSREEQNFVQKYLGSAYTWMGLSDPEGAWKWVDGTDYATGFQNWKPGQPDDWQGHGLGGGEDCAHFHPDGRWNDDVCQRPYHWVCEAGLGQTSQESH

Human KLRF1 = molecular target: T3, Human KLRF1 (human, UniProt Q9NZS2 1-231)
T3 construct: also called hKLRF1
T3 sequence: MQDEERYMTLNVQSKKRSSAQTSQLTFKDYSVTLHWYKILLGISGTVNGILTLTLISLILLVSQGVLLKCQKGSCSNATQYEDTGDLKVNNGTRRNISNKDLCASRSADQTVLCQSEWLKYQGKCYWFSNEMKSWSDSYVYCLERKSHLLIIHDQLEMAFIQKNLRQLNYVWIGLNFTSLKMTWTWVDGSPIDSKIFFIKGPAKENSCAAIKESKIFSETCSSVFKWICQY

Human Clec4E = molecular target: T4, Human Clec4E (human, UniProt Q9ULY5 1-219)
T4 construct: also called hClec4E
T4 sequence: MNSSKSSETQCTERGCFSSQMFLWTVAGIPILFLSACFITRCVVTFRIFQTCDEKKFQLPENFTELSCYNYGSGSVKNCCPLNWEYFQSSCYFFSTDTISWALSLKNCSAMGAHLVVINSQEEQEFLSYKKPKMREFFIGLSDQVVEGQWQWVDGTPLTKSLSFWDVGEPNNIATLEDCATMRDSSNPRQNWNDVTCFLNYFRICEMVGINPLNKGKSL

Human OLR1 = molecular target: T5, Human OLR1 (human, UniProt P78380 1-273)
T5 construct: also called hOLR1

Human CD209 = molecular target: T6, Human CD209 (human, UniProt Q9NNX6 1-404)
T6 construct: also called hCD209
T6 sequence: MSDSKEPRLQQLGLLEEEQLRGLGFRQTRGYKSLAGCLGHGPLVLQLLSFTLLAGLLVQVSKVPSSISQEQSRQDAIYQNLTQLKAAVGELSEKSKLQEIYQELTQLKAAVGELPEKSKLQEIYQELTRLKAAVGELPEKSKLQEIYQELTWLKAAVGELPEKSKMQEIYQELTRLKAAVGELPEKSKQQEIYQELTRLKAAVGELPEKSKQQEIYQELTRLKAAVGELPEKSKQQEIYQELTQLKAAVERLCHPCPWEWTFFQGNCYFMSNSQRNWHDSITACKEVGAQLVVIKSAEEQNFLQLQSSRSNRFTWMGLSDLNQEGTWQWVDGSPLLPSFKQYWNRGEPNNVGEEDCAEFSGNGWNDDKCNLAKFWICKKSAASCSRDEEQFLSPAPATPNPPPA

Human KLRG1 = molecular target: T7, Human KLRG1 (human, UniProt Q96E93 1-195)
T7 construct: also called hKLRG1
T7 sequence: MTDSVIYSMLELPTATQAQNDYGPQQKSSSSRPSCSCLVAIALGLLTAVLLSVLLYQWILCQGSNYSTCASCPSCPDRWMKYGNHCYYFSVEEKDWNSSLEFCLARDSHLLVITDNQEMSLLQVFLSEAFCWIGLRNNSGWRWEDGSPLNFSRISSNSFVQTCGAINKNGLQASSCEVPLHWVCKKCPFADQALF

Human Clec9A = molecular target: T8, Human Clec9A (human, UniProt Q6UXN8 1-241)
T8 construct: also called hClec9A

Human CD94 = molecular target: T9, Human CD94 (human, UniProt Q13241 1-179)
T9 construct: also called hCD94
T9 sequence: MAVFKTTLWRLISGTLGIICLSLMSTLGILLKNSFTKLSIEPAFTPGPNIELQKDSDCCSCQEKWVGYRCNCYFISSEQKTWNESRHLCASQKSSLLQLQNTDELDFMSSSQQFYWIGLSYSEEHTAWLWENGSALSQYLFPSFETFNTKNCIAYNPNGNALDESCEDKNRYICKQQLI

Human Clec5A = molecular target: T10, Human Clec5A (human, UniProt Q9NY25 1-188)
T10 construct: also called hClec5A
T10 sequence: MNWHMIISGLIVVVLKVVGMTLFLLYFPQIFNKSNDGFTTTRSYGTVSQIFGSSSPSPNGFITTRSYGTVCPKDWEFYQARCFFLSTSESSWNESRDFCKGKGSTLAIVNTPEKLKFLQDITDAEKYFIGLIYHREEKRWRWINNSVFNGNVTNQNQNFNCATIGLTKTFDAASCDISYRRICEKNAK

Human Clec7A = molecular target: T11, Human Clec7A (human, UniProt Q9BXN2 1-247)
T11 construct: also called hClec7A
T11 sequence: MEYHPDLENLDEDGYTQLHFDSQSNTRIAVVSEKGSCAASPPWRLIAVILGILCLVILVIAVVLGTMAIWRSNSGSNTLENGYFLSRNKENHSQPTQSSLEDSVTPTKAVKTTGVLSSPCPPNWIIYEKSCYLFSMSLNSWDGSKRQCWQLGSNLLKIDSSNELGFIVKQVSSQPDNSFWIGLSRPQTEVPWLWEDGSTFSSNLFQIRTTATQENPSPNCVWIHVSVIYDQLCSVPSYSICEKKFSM

Human Clec12B = molecular target: T12, Human Clec12B (human, UniProt Q2HXU8 1-276)
T12 construct: also called hClec12B
T12 sequence: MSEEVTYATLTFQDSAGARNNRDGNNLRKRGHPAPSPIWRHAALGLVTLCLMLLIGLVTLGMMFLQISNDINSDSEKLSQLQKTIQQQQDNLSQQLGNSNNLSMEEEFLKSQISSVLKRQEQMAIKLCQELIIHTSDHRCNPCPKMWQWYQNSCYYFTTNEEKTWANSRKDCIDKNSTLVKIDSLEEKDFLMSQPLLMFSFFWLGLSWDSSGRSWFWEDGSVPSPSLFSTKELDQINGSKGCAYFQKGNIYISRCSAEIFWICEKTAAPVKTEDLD

Measured: binding result

T8 sequence (Q6UXN8 whole entry): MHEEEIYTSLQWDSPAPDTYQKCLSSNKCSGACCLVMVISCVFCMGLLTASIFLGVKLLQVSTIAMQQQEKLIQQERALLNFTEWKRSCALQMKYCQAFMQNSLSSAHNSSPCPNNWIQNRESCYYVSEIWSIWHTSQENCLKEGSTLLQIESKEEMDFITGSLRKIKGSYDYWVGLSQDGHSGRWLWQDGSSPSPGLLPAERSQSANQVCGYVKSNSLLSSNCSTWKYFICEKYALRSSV

B1: KW9.3.3 (antibody, V domains shown)
VH: EVQLVESGGGLVQPGGSLRLSCAASGFTFSSYAMSWVRQAPGKGLEWVSAISGSGGRTYYADSVKGRFTISRDNSKNTLYLQMNSLRAEDTAMYYCARGPGYMYLYGDSFFEYWGQGTLVTVSS
VL: DIQMAQSPSSLSASVGDRVTITCRASQGISSYLNWYQQKPGKAPKLLIYAASSLQSGVPSRFSGSGYGTDFTLTISSLQPEDFATYYCQQSYSTPLTFGQGTKVEIK
no binding (tested: 100 nM): Human KLRF2 | Human Clec10A | Human KLRF1 | Human Clec4E | Human OLR1 | Human CD209 | Human KLRG1 | Human Clec9A | Human CD94 | Human Clec5A | Human Clec7A | Human Clec12B

B2: anti-CD161 KW17 (antibody, V domains shown)
VH: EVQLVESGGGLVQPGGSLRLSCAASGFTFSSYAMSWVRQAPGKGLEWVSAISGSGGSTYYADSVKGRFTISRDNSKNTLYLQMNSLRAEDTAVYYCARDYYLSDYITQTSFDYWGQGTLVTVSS
VL: QSVLTQPPSVSGAPGQRVTISCTGSSSNIGAGYDVHWYQQLPGTAPKLLIYGNSNRPSGVPDRFSGSKSGTSASLAITGLQAEDEADYYCQSYDSSHTVFGGGTQLTVL
notes: Human, lambda light chain; scFv-Fc or full IgG not clear; also called KW17-Fc
no binding (tested: 100 nM): Human KLRF2 | Human Clec10A | Human KLRF1 | Human Clec4E | Human OLR1 | Human CD209 | Human KLRG1 | Human Clec9A | Human CD94 | Human Clec5A | Human Clec7A | Human Clec12B

B3: KW17.3.4 (antibody, V domains shown)
VH: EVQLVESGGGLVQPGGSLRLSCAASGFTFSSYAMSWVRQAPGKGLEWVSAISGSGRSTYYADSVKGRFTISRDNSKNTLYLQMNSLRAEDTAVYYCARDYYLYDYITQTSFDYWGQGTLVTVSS
VL: B2 VL with K68Q, D94N, S96G
no binding (tested: 100 nM): Human KLRF2 | Human Clec10A | Human KLRF1 | Human Clec4E | Human OLR1 | Human CD209 | Human KLRG1 | Human Clec9A | Human CD94 | Human Clec5A | Human Clec7A | Human Clec12B
